Measurements as given in patent publication US20090149389A1 (PURDUE RESEARCH FOUNDATION, published 2009).

What was measured:
Test in all cases: cell-based or functional assay
Tie2 (h) = Tie2 (h) (human (h), UniProt Q02763 771-1124, limits assumed)
PKA (h) = PKA (h) (human (h), UniProt P17612 1-351)
Rsk2 (h) = Rsk2 (h) (human (h), UniProt P51812 1-740)
Met (h) = Met (h) (human (h), UniProt P08581 974-1390, limits assumed)
CHK1 (h) = biological target: T1, CHK1 (h) (human (h), UniProt O14757 1-476)
T1 sequence (looked up): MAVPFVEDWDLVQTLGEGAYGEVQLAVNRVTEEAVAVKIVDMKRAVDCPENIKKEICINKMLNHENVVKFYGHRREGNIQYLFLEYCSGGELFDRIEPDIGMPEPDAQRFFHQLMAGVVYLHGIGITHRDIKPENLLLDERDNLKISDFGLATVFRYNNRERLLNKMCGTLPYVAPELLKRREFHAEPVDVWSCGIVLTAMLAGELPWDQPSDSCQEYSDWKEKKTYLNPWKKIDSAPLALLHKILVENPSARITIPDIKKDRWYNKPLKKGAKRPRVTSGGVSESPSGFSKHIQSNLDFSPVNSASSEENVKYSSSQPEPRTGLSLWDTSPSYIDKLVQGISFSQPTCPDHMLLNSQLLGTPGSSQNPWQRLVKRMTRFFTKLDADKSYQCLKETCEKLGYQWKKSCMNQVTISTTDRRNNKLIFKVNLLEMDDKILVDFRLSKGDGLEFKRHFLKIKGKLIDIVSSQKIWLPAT

Flt3 (h) = biological target: T2, Flt3 (h) (human (h), UniProt P36888 564-993, limits assumed)
T2 sequence (looked up): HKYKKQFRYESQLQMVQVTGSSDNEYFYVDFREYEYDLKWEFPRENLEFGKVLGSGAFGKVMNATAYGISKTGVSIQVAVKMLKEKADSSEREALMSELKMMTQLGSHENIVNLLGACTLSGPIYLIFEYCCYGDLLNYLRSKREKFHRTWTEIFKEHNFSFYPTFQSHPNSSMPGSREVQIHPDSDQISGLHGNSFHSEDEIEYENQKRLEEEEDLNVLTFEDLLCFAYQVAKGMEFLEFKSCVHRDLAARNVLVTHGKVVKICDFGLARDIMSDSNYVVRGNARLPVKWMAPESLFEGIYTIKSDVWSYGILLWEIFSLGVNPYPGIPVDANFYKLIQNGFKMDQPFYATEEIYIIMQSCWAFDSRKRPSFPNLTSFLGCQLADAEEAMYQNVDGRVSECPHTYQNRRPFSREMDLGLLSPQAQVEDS

PKG1β (h) = biological target: T3, PKG1β (h) (human (h), UniProt Q13976-2 1-686)
T3 sequence (looked up): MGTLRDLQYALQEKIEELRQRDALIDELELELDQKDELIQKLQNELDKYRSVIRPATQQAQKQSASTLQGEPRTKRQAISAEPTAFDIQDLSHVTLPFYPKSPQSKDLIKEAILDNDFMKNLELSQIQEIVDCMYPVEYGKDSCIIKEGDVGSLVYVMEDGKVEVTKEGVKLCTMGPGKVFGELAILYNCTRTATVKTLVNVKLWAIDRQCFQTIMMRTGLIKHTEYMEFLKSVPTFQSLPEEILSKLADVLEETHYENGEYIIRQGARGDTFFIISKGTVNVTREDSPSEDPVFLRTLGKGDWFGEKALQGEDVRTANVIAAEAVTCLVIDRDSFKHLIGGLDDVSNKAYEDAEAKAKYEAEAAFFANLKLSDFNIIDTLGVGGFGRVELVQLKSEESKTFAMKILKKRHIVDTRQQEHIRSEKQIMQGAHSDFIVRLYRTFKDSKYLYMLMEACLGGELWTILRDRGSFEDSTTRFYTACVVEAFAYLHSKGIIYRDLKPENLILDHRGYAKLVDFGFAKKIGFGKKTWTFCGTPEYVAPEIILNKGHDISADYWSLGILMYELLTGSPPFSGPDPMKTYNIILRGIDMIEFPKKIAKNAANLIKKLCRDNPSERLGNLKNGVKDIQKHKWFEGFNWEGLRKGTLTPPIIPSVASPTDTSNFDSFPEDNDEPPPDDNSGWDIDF

PhKγ2 (h) = biological target: T4, PhKγ2 (h) (human (h), UniProt P15735 1-406)
T4 sequence (looked up): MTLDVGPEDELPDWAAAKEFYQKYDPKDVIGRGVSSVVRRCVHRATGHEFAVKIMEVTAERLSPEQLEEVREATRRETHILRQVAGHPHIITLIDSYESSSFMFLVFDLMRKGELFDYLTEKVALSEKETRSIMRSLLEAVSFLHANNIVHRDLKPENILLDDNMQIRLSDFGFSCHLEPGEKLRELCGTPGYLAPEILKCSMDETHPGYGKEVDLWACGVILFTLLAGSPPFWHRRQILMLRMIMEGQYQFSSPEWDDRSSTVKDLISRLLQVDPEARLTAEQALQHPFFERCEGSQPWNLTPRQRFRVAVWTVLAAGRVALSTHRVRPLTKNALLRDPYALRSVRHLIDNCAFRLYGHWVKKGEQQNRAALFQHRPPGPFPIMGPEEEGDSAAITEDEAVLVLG

Pim-1 (h) = Pim-1 (h) (human (h), UniProt P11309 1-313)
Chain of Pim-1 (h) (P11309 whole entry): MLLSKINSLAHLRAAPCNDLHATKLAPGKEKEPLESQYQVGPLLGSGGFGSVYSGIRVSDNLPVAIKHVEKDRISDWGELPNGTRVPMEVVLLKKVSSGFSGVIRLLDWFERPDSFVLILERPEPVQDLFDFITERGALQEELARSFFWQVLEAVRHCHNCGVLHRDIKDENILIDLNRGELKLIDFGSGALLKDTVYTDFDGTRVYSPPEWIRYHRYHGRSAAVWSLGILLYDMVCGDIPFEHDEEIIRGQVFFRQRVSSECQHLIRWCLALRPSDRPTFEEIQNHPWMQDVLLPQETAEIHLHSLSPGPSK

PRAK = biological target: T5, PRAK (UniProt Q8IW41 1-473, limits assumed)
T5 sequence (looked up): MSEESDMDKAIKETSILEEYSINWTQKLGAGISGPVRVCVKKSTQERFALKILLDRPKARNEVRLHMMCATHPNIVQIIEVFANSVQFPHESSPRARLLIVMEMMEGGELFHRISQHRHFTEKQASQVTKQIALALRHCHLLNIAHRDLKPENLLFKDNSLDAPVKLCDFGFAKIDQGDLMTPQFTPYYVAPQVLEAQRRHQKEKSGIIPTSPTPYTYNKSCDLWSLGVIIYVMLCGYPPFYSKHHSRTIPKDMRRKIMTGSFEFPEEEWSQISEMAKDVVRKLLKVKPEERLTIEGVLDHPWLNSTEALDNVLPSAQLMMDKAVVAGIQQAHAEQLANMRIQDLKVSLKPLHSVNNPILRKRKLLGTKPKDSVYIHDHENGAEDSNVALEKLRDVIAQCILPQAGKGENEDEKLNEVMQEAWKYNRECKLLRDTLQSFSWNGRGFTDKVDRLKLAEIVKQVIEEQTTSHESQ

cKit (h) = cKit (h) (human (h), UniProt P10721 544-976, limits assumed)
Chain of cKit (h) (P10721 544-976 limits assumed): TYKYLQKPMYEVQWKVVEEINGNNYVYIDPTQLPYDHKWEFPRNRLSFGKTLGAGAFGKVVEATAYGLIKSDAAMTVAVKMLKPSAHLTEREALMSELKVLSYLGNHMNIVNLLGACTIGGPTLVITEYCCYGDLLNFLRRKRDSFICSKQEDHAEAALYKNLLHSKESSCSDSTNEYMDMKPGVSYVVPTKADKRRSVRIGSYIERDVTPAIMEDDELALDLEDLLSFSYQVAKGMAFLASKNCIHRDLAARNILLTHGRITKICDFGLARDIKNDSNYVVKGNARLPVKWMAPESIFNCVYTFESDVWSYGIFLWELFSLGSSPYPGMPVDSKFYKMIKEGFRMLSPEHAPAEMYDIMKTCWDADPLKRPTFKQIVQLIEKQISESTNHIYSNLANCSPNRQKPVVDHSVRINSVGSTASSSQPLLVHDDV

Chain of Rsk2 (h) (P51812 whole entry): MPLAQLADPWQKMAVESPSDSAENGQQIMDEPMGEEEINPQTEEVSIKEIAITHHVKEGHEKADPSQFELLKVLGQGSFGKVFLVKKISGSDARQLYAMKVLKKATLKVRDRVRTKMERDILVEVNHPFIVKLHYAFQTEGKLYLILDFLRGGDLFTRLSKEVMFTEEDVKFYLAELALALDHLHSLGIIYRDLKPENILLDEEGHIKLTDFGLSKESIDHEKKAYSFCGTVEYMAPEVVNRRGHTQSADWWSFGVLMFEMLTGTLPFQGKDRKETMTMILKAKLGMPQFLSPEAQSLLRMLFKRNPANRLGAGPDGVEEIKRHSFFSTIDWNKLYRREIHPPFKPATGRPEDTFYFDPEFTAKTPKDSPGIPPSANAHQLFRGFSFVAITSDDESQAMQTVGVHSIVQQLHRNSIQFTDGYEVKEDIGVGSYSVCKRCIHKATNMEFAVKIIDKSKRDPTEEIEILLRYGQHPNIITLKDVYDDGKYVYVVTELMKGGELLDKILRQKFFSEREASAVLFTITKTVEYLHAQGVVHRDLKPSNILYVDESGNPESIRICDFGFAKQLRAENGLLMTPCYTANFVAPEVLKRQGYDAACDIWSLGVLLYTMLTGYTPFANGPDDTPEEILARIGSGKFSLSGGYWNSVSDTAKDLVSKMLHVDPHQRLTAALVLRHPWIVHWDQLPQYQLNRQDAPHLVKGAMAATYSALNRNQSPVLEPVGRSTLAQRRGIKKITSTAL
Chain of Tie2 (h) (Q02763 771-1124 limits assumed): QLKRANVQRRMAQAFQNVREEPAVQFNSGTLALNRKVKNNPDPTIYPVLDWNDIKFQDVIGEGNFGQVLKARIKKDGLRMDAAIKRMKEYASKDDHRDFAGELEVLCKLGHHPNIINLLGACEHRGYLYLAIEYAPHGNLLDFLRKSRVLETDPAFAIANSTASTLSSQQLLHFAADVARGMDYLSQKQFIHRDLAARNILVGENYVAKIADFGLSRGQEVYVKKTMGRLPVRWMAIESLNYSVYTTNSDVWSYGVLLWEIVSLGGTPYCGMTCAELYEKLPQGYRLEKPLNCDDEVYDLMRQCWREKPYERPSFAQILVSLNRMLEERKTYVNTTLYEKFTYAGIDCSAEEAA
Chain of Met (h) (P08581 974-1390 limits assumed): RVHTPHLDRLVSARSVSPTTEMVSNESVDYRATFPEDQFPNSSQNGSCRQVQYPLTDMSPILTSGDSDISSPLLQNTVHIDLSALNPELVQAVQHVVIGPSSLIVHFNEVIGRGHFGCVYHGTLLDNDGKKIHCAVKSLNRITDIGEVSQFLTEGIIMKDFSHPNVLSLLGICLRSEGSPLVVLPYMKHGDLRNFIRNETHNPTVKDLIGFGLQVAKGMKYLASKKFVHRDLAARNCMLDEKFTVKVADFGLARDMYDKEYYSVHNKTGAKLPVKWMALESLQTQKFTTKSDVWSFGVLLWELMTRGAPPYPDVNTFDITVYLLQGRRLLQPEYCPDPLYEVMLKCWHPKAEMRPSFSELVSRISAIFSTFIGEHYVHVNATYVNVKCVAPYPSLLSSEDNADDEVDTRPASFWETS

B1: FAKLAARLYRKALARQLGVAA (peptide)
peptide: FAKLAARLYRKALARQLGVAA
Profile-1 @ = 100 µm (kinase profiler assay) (Tie2 (h)): 0 | Profile-1 @ = 100 µm (kinase profiler assay) (PKA (h)): 76 | Profile-1 @ = 100 µm (kinase profiler assay) (Rsk2 (h)): -1 | Profile-1 @ = 100 µm (kinase profiler assay) (Met (h)): 17 | Profile-1 @ = 100 µm (kinase profiler assay) (CHK1 (h)): 54 | Profile-1 @ = 100 µm (kinase profiler assay) (Flt3 (h)): 14 | Profile-1 @ = 100 µm (kinase profiler assay) (PKG1β (h)): 15 | Profile-1 @ = 100 µm (kinase profiler assay) (PhKγ2 (h)): 20 | Profile-1 @ = 100 µm (kinase profiler assay) (Pim-1 (h)): 1 | Profile-1 @ = 100 µm (kinase profiler assay) (PRAK): 131 | Profile-1 @ = 100 µm (kinase profiler assay) (cKit (h)): 42
